Results reported in PMC8452709, “Effects of apolipoprotein E isoform, sex, and diet on insulin BBB pharmacokinetics in mice” (Scientific Reports, 2021).

Experiments:
brain endothelial cell = assay: 125I-insulin reversible vascular binding (Vi), y-intercept of multiple-time regression; format: in vivo, mice (human E3- and E4-targeted replacement); details: for Vi, reversible vascular binding: 15 mo, iv, albumin-corrected
Protocol: (§1) Ten micrograms of human insulin (Sigma-Aldrich, St. Louis, MO, USA) was diluted in 0.25 M chloride-free sodium phosphate buffer (PB), pH 7.5, and radioactivity labeled with 0.5–1 mCi Na^125I (Perkin Elmer, Waltham, MA, USA) using the chloramine-T (Sigma-Aldrich) method similar to our previously reported methods. […] Protein labelling by ^125I or by ^99mTc isotopes was characterized by 15% trichloroacetic acid (TCA) precipitation.
(§2) Mice were anesthetized with an intraperitoneal injection of 0.1–0.15 ml 40% urethane to minimize pain and distress. […] Blood from the left carotid artery was collected between 0.5 and 10 min after intravenous injection. Mice were immediately decapitated and their whole brains quickly removed and weighed. Each mouse provided a single blood sample and time matched brain sample. The arterial blood was centrifuged at 5400g for 10 min at 4 °C and serum collected. The brains were dissected into regions according to the method described in Ref.[56] and weighed. The levels of radioactivity in serum (50 μl) and brain regions were counted in a gamma counter (Wizard2, Perkin Elmer, Waltham, MA). […] Expt was calculated from the formula:1 Exposuretime=∫0tCptdt/Cpt, where Cp is the level of radioactivity (cpm) in serum at time (t). Expt corrects for the clearance of peptide from the blood. The influx of insulin was calculated by multiple-time regression analysis as described by Patlaket al.[55],[57]:2 Am/Cpt=Ki∫0tCptdt/Cpt+Vi, where Am is level of radioactivity (cpm) per g of brain tissue at time t, Cpt is the level of radioactivity (cpm) per ml arterial serum at time t, Ki (μl/g-min) is the steady-state rate of unidirectional solute influx from blood to brain. Vi (μl/g) is the level of rapid and reversible binding for brain which usually is a combination of vascular space plus any brain endothelial cell receptor binding. The brain/serum (B/S) ratios for insulin were corrected for vascular space by subtracting the corresponding ratio for albumin, yielding a delta B/S ratio. The linear portion of the relation between the delta B/S ratio versus Expt was used to calculate the Ki (μl/g-min) with its standard error term, and the y-intercept determined as representation of the Vi (μl/g)[55].
(§3) As a priori sex differences were expected, male and female data were analyzed separately. Regression analyses and other statistical analyses were performed with Prism 8.0 (GraphPad Software Inc., San Diego, CA, USA) and SPSS (Chicago, IL) software. Brain weight means are reported with their standard error terms and analyzed using two-way analysis of variance (ANOVA) followed by Sidak’s post hoc test when appropriate. For pharmacokinetic studies, the slope of the linear regression lines (Ki), reported with their correlation coefficients (r), and y-intercepts (Vi) were compared statistically using the Prism software, as described.

[1] = system: blood–brain barrier (BBB); assay: 125I-insulin BBB transport, multiple-time regression analysis (Ki); format: in vivo, mice (human E3- and E4-targeted replacement); details: 15 mo, iv, albumin-corrected
Protocol: as §1, §2, §3

[2] = female E3 HFD mice, hippocampus
[3] = female E3 HFD mice, parietal cortex
[4] = female E3 HFD mice, pons/medulla

In the case of “125I-insulin: human insulin (Sigma-Aldrich) radioactively labeled with Na125I by the chloramine-T method”, the “Vi, reversible vascular binding” value (brain endothelial cell; [2]) is reported as 5.8 µL/g, the “Vi, reversible vascular binding” value (brain endothelial cell; female E3 HFD mice, midbrain) is reported as 2.1 µL/g and the “Vi, reversible vascular binding” value (brain endothelial cell; [3]) is reported as 2.3 µL/g. For the same substance, the “Vi, reversible vascular binding” value (brain endothelial cell; [4]) was 4.4 µL/g, the “Vi, reversible vascular binding” value (brain endothelial cell; female E3 LFD mice, frontal cortex) was 6.3 µL/g and the “Vi, reversible vascular binding” value (brain endothelial cell; female E3 LFD mice, hippocampus) was 5.1 µL/g. The “Vi, reversible vascular binding” value (brain endothelial cell; female E3 LFD mice, hypothalamus) was -0.2 µL/g, the “Vi, reversible vascular binding” value (brain endothelial cell; female E3 LFD mice, olfactory bulb) was 11.7 µL/g and the “Vi, reversible vascular binding” value (brain endothelial cell; female E3 LFD mice, pons/medulla) was 7.9 µL/g. The “Vi, reversible vascular binding” value (brain endothelial cell; female E3 LFD mice, striatum) was 4.0 µL/g, the “Vi, reversible vascular binding” value (brain endothelial cell; female E3 LFD mice, thalamus) was 8.4 µL/g and the “Vi, reversible vascular binding” value (brain endothelial cell; female E4 HFD mice, frontal cortex) was 5.2 µL/g. The “Vi, reversible vascular binding” value (brain endothelial cell; female E4 HFD mice, occipital cortex) was 4.1 µL/g, the “Vi, reversible vascular binding” value (brain endothelial cell; female E4 HFD mice, pons/medulla) was 3.0 µL/g and the “Vi, reversible vascular binding” value (brain endothelial cell; female E4 LFD mice, hippocampus) was 8.8 µL/g. The “Vi, reversible vascular binding” value (brain endothelial cell; female E4 LFD mice, hypothalamus) was 4.4 µL/g, the “Vi, reversible vascular binding” value (brain endothelial cell; female E4 LFD mice, midbrain) was 5.4 µL/g and the “Vi, reversible vascular binding” value (brain endothelial cell; female E4 LFD mice, occipital cortex) was 3.9 µL/g. The “Vi, reversible vascular binding” value (brain endothelial cell; female E4 LFD mice, parietal cortex) was 7.9 µL/g, the “Vi, reversible vascular binding” value (brain endothelial cell; female E4 LFD mice, pons/medulla) was 9.4 µL/g and the “Vi, reversible vascular binding” value (brain endothelial cell; female E4 LFD mice, striatum) was 6.3 µL/g. For the same substance, the “Vi, reversible vascular binding” value (brain endothelial cell; female E4 LFD mice, thalamus) was 8.8 µL/g, the “Vi, reversible vascular binding” value (brain endothelial cell; male E3 HFD mice, occipital cortex) was 0.2 µL/g and the “Vi, reversible vascular binding” value (brain endothelial cell; male E3 HFD mice, olfactory bulb) was 0.4 µL/g. For the same substance, the “Vi, reversible vascular binding” value (brain endothelial cell; male E3 HFD mice, pons/medulla) was 1.7 µL/g, the “Vi, reversible vascular binding” value (brain endothelial cell; male E3 HFD mice, thalamus) was 2.3 µL/g and the “Vi, reversible vascular binding” value (brain endothelial cell; male E3 LFD mice, frontal cortex) was 4.0 µL/g. The “Vi, reversible vascular binding” value (brain endothelial cell; male E3 LFD mice, occipital cortex) was 5.0 µL/g, the “Vi, reversible vascular binding” value (brain endothelial cell; male E3 LFD mice, olfactory bulb) was 5.9 µL/g and the “Vi, reversible vascular binding” value (brain endothelial cell; male E3 LFD mice, parietal cortex) was 5.8 µL/g. For the same substance, the “Vi, reversible vascular binding” value (brain endothelial cell; male E4 HFD mice, pons/medulla) was 3.4 µL/g, the “Vi, reversible vascular binding” value (brain endothelial cell; male E4 HFD mice, striatum) was 4.2 µL/g and the “Vi, reversible vascular binding” value (brain endothelial cell; male E4 LFD mice, cerebellum) was 8.1 µL/g. The “Vi, reversible vascular binding” value (brain endothelial cell; male E4 LFD mice, hypothalamus) was 8.0 µL/g, the “Vi, reversible vascular binding” value (brain endothelial cell; male E4 LFD mice, occipital cortex) was 4.1 µL/g and the “Vi, reversible vascular binding” value (brain endothelial cell; male E4 LFD mice, parietal cortex) was 3.4 µL/g. For the same substance, the “Vi, reversible vascular binding” value (brain endothelial cell; male E4 LFD mice, striatum) was 4.4 µL/g, the “Vi, reversible vascular binding” value (brain endothelial cell; male E4 LFD mice, thalamus) was 4.1 µL/g and the “Whole brain reversible vascular binding (Vi, y-axis intercept)” value (brain endothelial cell; males, between apoE isoform/diet groups, p = 0.002) was “differences”. For the same substance, the “Ki, linear BBB transport (unidirectional influx rate)” value (shortened to “Ki, linear BBB transport”) ([1]; female E3 HFD mice, cerebellum) was 1.34 µL/g/min, the “Ki, linear BBB transport” value [1, 2] was 0.96 µL/g/min and the “Ki, linear BBB transport” value ([1]; female E3 HFD mice, occipital cortex) was 1.03 µL/g/min. For the same substance, the “Ki, linear BBB transport” value ([1]; female E3 HFD mice, olfactory bulb) was 1.19 µL/g/min, the “Ki, linear BBB transport” value [1, 3] was 0.95 µL/g/min and the “Ki, linear BBB transport” value [1, 4] was 1.31 µL/g/min. For the same substance, the “Ki, linear BBB transport” value ([1]; female E3 HFD mice, striatum) was 1.32 µL/g/min, the “Ki, linear BBB transport” value ([1]; female E3 HFD mice, thalamus) was 0.91 µL/g/min and the “Ki, linear BBB transport” value ([1]; female E3 LFD mice, cerebellum) was 1.17 µL/g/min.
